What is called koff is the rate constant with which the complex falls apart.

Assay [1] has as its target T1, human NGF (Homo sapiens, UniProt P01138). The assay is described as follows: BIAcore screening assay of Fab library clones (koff). The settings on record: Table 8: CDR L3 H3 combination mutations, H19-L129 template (H1H2L1L2 matured). The format is binding. The gist of the method:
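Fab library clones expressed in E. coli (1 mM IPTG, 5 h, 30° C), lysed by freeze-thaw in HBS-EP; lysates injected at 50 μl/min for 2 min over CM5-immobilised human NGF (500-600 RU). Single-exponential koff fitted from 10-15 min dissociation; Fab presence checked via anti-penta-His channel.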
A general note: SPR reads the build-up and loss of mass on a sensor chip optically.

Assay [2] has as its target T1, human NGF. The assay is described as follows: Mouse E13.5 trigeminal neuron survival assay, human NGF. In kind it is cell-based. The settings on record: 0.4 ng/ml human NGF (saturating); 0.00128-20 nM. How it is done:
The ability of Fab E3 or full antibody E3 to block NGF activity was evaluated by measurement of the capacity of the antibody to inhibit NGF-dependent survival of mouse E13.5 trigeminal neurons in vitro. The trigeminal ganglion is comprised of cutaneous sensory neurons that innervate the facial region. The survival of mouse E13.5 trigeminal neurons is a sensitive assay to evaluate the NGF-blocking activity of anti-NGF antagonist antibodies because NGF is required to support survival of these neurons. For example, at saturating concentrations of NGF, the survival is close to 100% by 48 hours in culture. By contrast, less than 5% of the neurons survive by 48 hours in absence of NGF.
The survival assay was conducted as follows: time-mated pregnant Swiss Webster female mice were euthanized by CO2 inhalation. The uterine horns were removed and the embryos at embryonic stage E13.5 were extracted and decapitated. The trigeminal ganglia were dissected using electrolytically sharpened tungsten needles. The ganglia were then trypsinized, mechanically dissociated and plated at a density of 200-300 cells per well in defined, serum-free medium in 96-well plates coated with poly-L-ornithine and laminin.
After 48 hours in culture, the cells were subjected to an automated immunocytochemistry protocol performed on a Biomek FX liquid handling workstation (Beckman Coulter) as follows: fixation using 4% formaldehyde, 5% sucrose, and PBS; permeabilization using 0.3% Triton X-100 in PBS); blocking of unspecific binding sites using 5% normal goat serum, 0.11% BSA in PBS; and sequential incubation with a primary and secondary antibodies to detect neurons. The primary antibody was rabbit polyclonal antibody against the protein gene product […] (PGP9.5, Chemicon), an established neuronal phenotypic marker. The secondary antibody was Alexa Fluor 488 goat anti-rabbit (Molecular Probes), together with the nuclear dye Hoechst 33342 (Molecular Probes) to label the nuclei of all the cells present in the culture. […]

T1 sequence (P01138 122-241): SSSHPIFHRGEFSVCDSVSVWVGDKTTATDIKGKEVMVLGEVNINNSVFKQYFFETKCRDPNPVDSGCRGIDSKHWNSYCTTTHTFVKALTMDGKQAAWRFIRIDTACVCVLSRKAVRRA

B1: E3: humanized, affinity matured anti-NGF antagonist antibody; variable regions SEQ ID NO:1 and 2; human IgG2a (A330P331 to S330S331), kappa (antibody, V domains shown)
VH: QVQLQESGPGLVKPSETLSLTCTVSGFSLIGYDLNWIRQPPGKGLEWIGIIWGDGTTDYNSAVKSRVTISKDTSKNQFSLKLSSVTAADTAVYYCARGGYWYATSYYFDYWGQGTLVTVS
VL: DIQMTQSPSSLSASVGDRVTITCRASQSISNNLNWYQQKPGKAPKLLIYYTSRFHSGVPSRFSGSGSGTDFTFTISSLQPEDIATYYCQQEHTLPYTFGQGTKLEIKRT
modifications: human IgG2a constant (A330S/P331S) and kappa constant missing
B1: the off-rate constant (koff) with human NGF [1] came to 1.2e-05 s⁻¹. Moreover, the “inhibition of NGF-dependent survival compared with antibody 911 and trkA immunoadhesin” value with human NGF [2] is “blocked NGF significantly better than either mouse monoclonal anti-NGF antibody 911 or the trkA immunoadhesin”.

The values above are taken from patent US20080182978A1, “ANTI-NGF ANTIBODIES AND METHODS USING SAME” (RINAT NEUROSCIENCE CORP, priority 2002, published 2008).
